For this test, the target named is T1, homomeric GluR6 receptor (Rattus norvegicus, UniProt P42260, I567V/Q621R/Y571C).
T1 construct: A 4559 base pair cDNA encoding a protein of 884 amino acid residues was engineered from RC11 and RC27; expressed in transfected cells; host or cells: Xenopus oocytes injected with in vitro transcribed GluR6 RNA
Kind of test: Homomeric GluR6 ion channel in Xenopus oocytes injected with in vitro transcribed RNA. The class given is cell-based.

T1 sequence (P42260 with tags, fused parts or gaps I567V/Y571C/Q621R): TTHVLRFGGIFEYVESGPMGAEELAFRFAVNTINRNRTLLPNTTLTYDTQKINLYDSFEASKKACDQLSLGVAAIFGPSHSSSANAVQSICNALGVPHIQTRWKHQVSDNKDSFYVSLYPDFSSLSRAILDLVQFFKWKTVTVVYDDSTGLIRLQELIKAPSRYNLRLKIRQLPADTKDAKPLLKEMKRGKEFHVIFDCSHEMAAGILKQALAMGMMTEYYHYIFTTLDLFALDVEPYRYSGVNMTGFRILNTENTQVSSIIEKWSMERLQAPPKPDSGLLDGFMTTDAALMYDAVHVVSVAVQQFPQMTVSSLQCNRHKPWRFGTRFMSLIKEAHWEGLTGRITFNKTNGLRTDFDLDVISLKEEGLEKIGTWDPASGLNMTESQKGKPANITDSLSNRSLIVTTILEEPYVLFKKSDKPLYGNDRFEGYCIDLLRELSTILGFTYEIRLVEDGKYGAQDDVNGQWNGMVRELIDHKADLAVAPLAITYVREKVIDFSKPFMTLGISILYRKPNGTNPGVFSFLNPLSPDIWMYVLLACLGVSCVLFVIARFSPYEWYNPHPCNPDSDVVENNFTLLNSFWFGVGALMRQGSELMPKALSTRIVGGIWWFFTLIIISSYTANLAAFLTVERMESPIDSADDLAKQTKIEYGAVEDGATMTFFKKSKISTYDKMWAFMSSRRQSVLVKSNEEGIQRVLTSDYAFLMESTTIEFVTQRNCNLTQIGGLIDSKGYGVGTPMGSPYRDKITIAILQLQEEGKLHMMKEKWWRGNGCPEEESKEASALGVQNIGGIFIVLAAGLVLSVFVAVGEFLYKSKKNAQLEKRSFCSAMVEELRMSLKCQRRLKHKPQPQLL

B1: concanavalin A (protein)
chain: STHETNALHFMFNQFSKDQKDLILQGDATTGTDGNLELTRVSSNGSPQGSSVGRALFYAPVHIWESSAVVASFEATFTFLIKSPDSHPADGIAFFISNIDSSIPSGSTGRLLGLFPDANVIRNSTTIDFNAAYNADTIVAVELDTYPNTDIGDPSYPHIGIDIKSVRSKKTAKWNMQNGKVGTAHIIYNSVDKRLSAVVSYPNADSATVSYDVDLDNVLPEWVRVGLSASTGLYKETNTILSWSFTSKLKSN
notes: concanavalin A, used to decrease receptor desensitization
Turning to B1, the effect on desensitization result (10 μM for 5 minutes) is reported as “efficiently decreases desensitization”. For the same molecule, the “increase of current elicited by kainate and glutamate compared to peak current before treatment” value (equimolar agonist concentrations) fell in the range of 75 to 150 fold.

The values above are taken from US5739291A, “Glutamate receptor antibodies” (The Salk Institute For Biological Studies, priority 1995, dated 1998).
